According to patent US20220024992A1, “COMPOSITIONS AND METHODS COMPRISING LYSOCINS AS BIOENGINEERED ANTIMICROBIALS FOR USE IN TARGETING GRAM-NEGATIVE BACTERIA” (The Rockefeller University, priority 2018, published 2022):
In brackets after ≈: the same amount, converted by molar mass. Like-named read-outs stand apart in the source and are kept apart here.

Columns and labels:
[1] = system: P. aeruginosa strains; assay: MIC and MBC, modified CLSI broth microdilution, CAA medium; format: cell-based; conditions: strain 453, FpvA type I
Protocol: The MIC and MBC values were calculated using a modified version of the broth microdilution assay as previously described by the Clinical and Laboratory Standards Institute (CLSI) (45). The specific modifications were to the bacterial concentration and growth medium used. […] CAA medium was used for Gram-negative bacteria to simulate low iron conditions. Alternatively, MHB was used for Gram-positive bacteria due to their inability to grow in CAA medium. Bacterial growth was assessed by measuring the OD600 nm using a SpectraMax M5 microplate reader (Molecular Devices). The MIC was defined as the lowest antimicrobial concentration that inhibits bacterial growth. To determine the MBC, the contents from each well originating from the MIC microtiter plate was plated on CAA agar to quantitate bacterial viability. The MBC was defined as the lowest antimicrobial concentration required to kill ≥99.9% of the initial bacterial inoculum. Growth and sterility controls were included.

[2] = system: pseudomonal PG (autoclaved P. aeruginosa); assay: Muralytic plate lysis assay on autoclaved Pseudomonas; format: biochemical; conditions: 25 pmol spotted
[3] = molecular target: FpvAIII receptor (Pseudomonas aeruginosa); assay: cell-based or functional assay
[4] = molecular target: ferripyoverdine A type I (FpvAI) receptor (Pseudomonas aeruginosa) (UniProt P48632); assay: cell-based or functional assay
[5] = molecular target: FpvAII receptor (Pseudomonas aeruginosa); assay: cell-based or functional assay
[6] = system: P. aeruginosa strains; assay: MIC, CLSI broth microdilution in CAA medium with EDDHA
Protocol: The FpvA receptor type for all P. aeruginosa strains used was determined using multiplex PCR, as previously described (67). […] CAA medium consisting of 0.5 mg/ml EDDHA was used instead of MHB. All P. aeruginosa strains were initially inoculated in CAA medium and grown overnight at 37° C. with aeration. The bacteria were then pelleted, washed and resuspended in CAA medium with EDDHA. Using a 96-well U-bottom microtiter plate, P. aeruginosa at a final concentration of 5×10^5 CFU/ml were incubated statically at 37° C. with 0.002-256 μg/ml lysocin in CAA medium with EDDHA for a total of 48 h. Growth (bacteria incubated in growth medium absent lysocin) and sterility controls (growth medium only) were included for each dataset. At the culmination of the experiment, each plate was visually inspected for bacterial growth. All samples were assayed in triplicate. The MIC was defined as the lowest concentration of lysocin that inhibited observable bacterial growth.

[7] = system: P. aeruginosa strain 453; assay: Cell viability assays with 0.5 μM antimicrobial
Protocol: P. aeruginosa strain 453 were grown under iron-depleted conditions (see Bacterial Strains and Growth Conditions). The bacteria were harvested, washed and resuspended in fresh CAA medium with 0.5 mg/ml EDDHA. Using a 96-well flat-bottomed microtiter plate, the bacteria at ˜10^6 CFU/ml were incubated statically at 37° C. with either growth medium only (untreated control) or 0.5 μM purified antimicrobial. A 2 h incubation was used for the single time point experiments, whereas a 4 or 6 h incubation was used for the multiple time point assays. At various time points, an aliquot was removed from each sample, serially diluted and plated on CAA agar. After incubating the agar plates for up to 48 h at 37° C., colonies were counted in order to quantitate the CFU/ml concentration of surviving bacterial cells. Modifications were introduced to the aforementioned cell viability assay protocol for the experiment using P. aeruginosa grown in the presence of varying free iron concentrations. First, P. aeruginosa strain 453 were grown using iron-depleted or iron-rich conditions (CAA medium supplemented with 100 μM FeSO4) at 37° C. with aeration for a total of 16-18 h and subsequently assayed for lysocin sensitivity in PBS, pH 7.4. For the experiment analyzing lysocin activity in the presence of lung surfactant or serum, P. aeruginosa were incubated with or without lysocin in beractant ([sequence]; Abbvie) or HuS diluted 1:1 with 20 mM sodium phosphate, pH 7.0.

[8] = Pseudomonas aeruginosa, read-out: MBC
[9] = Pseudomonas aeruginosa, read-out: MIC

Molecule	MIC, P. aeruginosa strain 443 (FpvAIII) [3] [µg/mL]	MIC, P. aeruginosa strain 450 (FpvAIII) [3] [µg/mL]	MIC, P. aeruginosa strain AR471 (FpvAIII) [3] [µg/mL]	MIC, P. aeruginosa strain 447 (FpvAI) [4] [µg/mL]	MIC, P. aeruginosa strain 453 (FpvAI) [4] [µg/mL]	MIC, P. aeruginosa strain AR465 (FpvAI) [4] [µg/mL]	MIC, P. aeruginosa strain AR469 (FpvAI) [4] [µg/mL]	MIC, P. aeruginosa strain AR470 (FpvAI) [4] [µg/mL]	MIC, P. aeruginosa strain AR474 (FpvAI) [4] [µg/mL]	MIC, P. aeruginosa strain PAO1 (FpvAI) [4] [µg/mL]	MIC, P. aeruginosa strain 445 (FpvAII) [5] [µg/mL]	MIC, P. aeruginosa strain 448 (FpvAII) [5] [µg/mL]	MIC, P. aeruginosa strain 451 (FpvAII) [5] [µg/mL]	MIC, P. aeruginosa strain AR468 (FpvAII) [5] [µg/mL]	further results
C[C@@H](O)[C@H]1C(=O)N2C(C(=O)O)=C(S[C@@H]3CN[C@H](C(=O)N(C)C)C3)[C@H](C)[C@H]12 [Meropenem, meropenem, reference compound]															MBC [1, 8]: 8 µg/mL (≈ 20.9 µM); MIC [1, 9]: 8 µg/mL (≈ 20.9 µM)
NC[C@H]1O[C@H](O[C@H]2[C@H](O)[C@@H](O[C@H]3O[C@H](CO)[C@@H](O)[C@H](N)[C@H]3O)[C@H](N)C[C@@H]2N)[C@H](N)C[C@@H]1O [Tobramycin, tobramycin, reference compound]															MBC [1, 8]: 0.25 µg/mL (≈ 0.535 µM); MIC [1, 9]: 0.125 µg/mL (≈ 0.267 µM)
CEWL: Chicken egg white lysozyme, positive control for muralytic activity [reference compound]															muralytic activity (clearing zones) on autoclaved P. aeruginosa [2]: Clearing zones
PyS2-GN4 lysocin															MIC, P. aeruginosa strain 443 (FpvA type III) [3]: > 256 µg/mL; MIC, P. aeruginosa strain 450 (FpvA type III) [3]: > 256 µg/mL; MBC, P. aeruginosa strain 453 (FpvA type I) [4]: 0.25 µg/mL; MIC, P. aeruginosa strain 452 (FpvA type I) [4]: 4 µg/mL; MIC, P. aeruginosa strain 453 (FpvA type I) [4]: 0.25 µg/mL; MIC, P. aeruginosa strain MDR-M-3 (FpvA type I) [4]: 2 µg/mL; MIC, P. aeruginosa strain PAO1 (FpvA type I) [4]: 2 µg/mL; MIC, P. aeruginosa strain 445 (FpvA type II) [5]: > 256 µg/mL; MIC, P. aeruginosa strain 446 (FpvA type II) [5]: > 256 µg/mL; MIC, P. aeruginosa strain 448 (FpvA type II) [5]: > 256 µg/mL; MIC, P. aeruginosa strain 449 (FpvA type II) [5]: > 256 µg/mL; MIC, P. aeruginosa strain 451 (FpvA type II) [5]: > 256 µg/mL
PyS2-I-GN3 lysocin	> 256	> 256	> 256	8	4	4	8	4	4	8	> 256	> 256	> 256	> 256	
PyS2-I-GN4 lysocin	> 256	> 256	> 256	4	0.25	4	8	8	4	4	> 256	> 256	> 256	> 256	
PyS2-I-PlyPa03 lysocin	> 256	> 256	> 256	4	0.25	2	4	8	4	4	> 256	> 256	> 256	> 256	
PyS2-I-PlyPa03: PyS2 aa 1-209, GSx3 linker, P. aeruginosa lysin PlyPa03 (aa 2-144)															muralytic activity (clearing zones) on autoclaved P. aeruginosa [2]: degraded pseudomonal PG; activity towards strains ([6]; P. aeruginosa strains expressing FpvAII and FpvAIII): ineffective; MIC ([6]; strain 443, FpvAIII): >256 µg/mL; MIC ([6]; strain 445, FpvAII): >256 µg/mL; MIC ([6]; strain 447, FpvAI): 4 µg/mL; MIC ([6]; strain 448, FpvAII): >256 µg/mL; MIC ([6]; strain 450, FpvAIII): >256 µg/mL; MIC ([6]; strain 451, FpvAII): >256 µg/mL; MIC ([6]; strain 453, FpvAI): 0.25 µg/mL; MIC ([6]; strain AR465, FpvAI): 2 µg/mL; MIC ([6]; strain AR468, FpvAII): >256 µg/mL; MIC ([6]; strain AR469, FpvAI): 4 µg/mL; MIC ([6]; strain AR470, FpvAI): 8 µg/mL; MIC ([6]; strain AR471, FpvAIII): >256 µg/mL; MIC ([6]; strain AR474, FpvAI): 4 µg/mL; MIC ([6]; strain PAO1, FpvAI): 4 µg/mL; decrease in viability of Pseudomonas ([7]; 1 h, iron-chelated CAA medium): 3.6 log10; killing of Pseudomonas ([7]; 2 h, 50% HuS): 4.5 log10; killing of P. aeruginosa ([7]; 2 h, 50% beractant (SURVANTA)): 3.6 log10; killing of P. aeruginosa ([7]; 4 h, iron-chelated CAA medium): 6.2 log10
colistin [reference compound]															MBC [1]: 0.5 µg/mL; MIC [1]: 0.5 µg/mL
